These results are taken from US20180155426A1 (SANFORD BURNHAM PREBYS MEDICAL DISCOVERY INSTITUTE, published 2018).

In test [1] the target is T1, huBTLA:huIgG recombinant fusion protein (human, UniProt Q7Z6A9 31-157, limits assumed).
T1 construct: Produced in 293T cells; Used as the immunogen and as the ELISA screening antigen; not shown: human IgG portion
T1 sequence (looked up): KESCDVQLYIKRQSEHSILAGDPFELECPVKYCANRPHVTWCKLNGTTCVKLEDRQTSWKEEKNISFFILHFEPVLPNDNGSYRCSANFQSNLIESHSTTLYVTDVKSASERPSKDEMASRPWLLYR
Kind of test: ELISA screen against huBTLA:huIgG (with purified huIgG as counter-screen).

Test [2] has as its target T2, human BTLA expressed on cells (human, UniProt Q7Z6A9 31-289).
T2 construct: whole, on cells; also called huBTLA; B and T lymphocyte attenuator
Kind of test: flow cytometry on MEF cells expressing huBTLA compared to non-BTLA expressing parental cells. (In general: In flow cytometry, cells or beads pass a laser one at a time.)
Method: The resulting hybridoma clones were screened by ELISA against huBTLA:huIgG and purified huIgG to identify those specific for huBTLA. A secondary screen was performed by binding to Beg+/+MEF cells expressing huBTLA and analyzing by flow cytometry compared to the non-BTLA expressing parental cells.

B1: anti-human BTLA monoclonal antibody clone 6F4 (antibody, V domains shown)
VH: EVQILETGGGLVKPGGSLRLSCATSGFNFNDYFVNWVRQAPGKGLQWVAQIRNKNYNPATYYAESLEGRVTISRDDSKSSVYLQVSSVRAEDTAIYYCSPISSYYHDGSLHYSDYWGQGVMVTVSS
VL: DIQMTQSPSVLSVSVGDRVTLNCKASHNIKNYLNWYQQKLGEAPKLLIYDTVNLQTGIPSRFSGSGSGTDFTVTISSLQPEDVATYFCFQYHSWPYTFGAGTKLELKR
notes: also called rat anti-hBLTA Mab Clone 6F4; Anti BTLA 6F4
Turning to B1, the binding result in test [1] and in test [2] was “binds” in each case.
